Assays:
bp.CS06xB10v5 = assay: -; apparent KD
o.a. B10v5 = assay: -; apparent KD

Kd (bp.CS06xB10v5): 0.0196 nM
Kd (o.a. B10v5): 0.417 nM
B1: hu c-Met (receptor)
chain: ECKEALAKSEMNVNMKYQLPNFTAETPIQNVILHEHHIFLGATNYIYVLNEEDLQKVAEYKTGPVLEHPDCFPCQDCSSKANLSGGVWKDNINMALVVDTYYDDQLISCGSVNRGTCQRHVFPHNHTADIQSEVHCIFSPQIEEPSQCPDCVVSALGAKVLSSVKDRFINFFVGNTINSSYFPDHPLHSISVRRLKETKDGFMFLTDQSYIDVLPEFRDSYPIKYVHAFESNNFIYFLTVQRETLDAQTFHTRIIRFCSINSGLHSYMEMPLECILTEKRKKRSTKKEVFNILQAAYVSKPGAQLARQIGASLNDDILFGVFAQSKPDSAEPMDRSAMCAFPIKYVNDFFNKIVNKNNVRCLQHFYGPNHEHCFNRTLLRNSSGCEARRDEYRTEFTTALQRVDLFMGQFSEVLLTSISTFIKGDLTIANLGTSEGRFMQVVVSRSGPSTPHVNFLLDSHPVSPEVIVEHTLNQNGYTLVITGKKITKIPLNGLGCRHFQSCSQCLSAPPFVQCGWCHDKCVRSEECLSGTWTQQICLPAIYKVFPNSAPLEGGTRLTICGWDFGFRRNNKFDLKKTRVLLGNESCTLTLSESTMNTLKCTVGPAMNKHFNMSIIISNGHGTTQYSTFSYVDPVITSISPKYGPMAGGTLLTLTGNYLNSGNSRHISIGGKTCTLKSVSNSILECYTPAQTISTEFAVKLKIDLANRETSIFSYREDPIVYEIHPTKSFISGGSTITGVGKNLNSVSVPRMVINVHEAGRNFTVACQHRSNSEIICCTTPSLQQLNLQLPLKTKAFFMLDGILSKYFDLIYVHNPVFKPFEKPVMISMGNENVLEIKGNDIDPEAVKGEVLKVGNKSCENIHLHSEAVLCTVPNDLLKLNSELNIEWKQAISSTVLGKVIVQPDQNFT
